Patent US20220227832

Molecular target: Muc16 CAR 53B6 with a V5 tag attached to its N-terminus via matriptase cleavable linker TPS6 45aa
Sequence (chain, as listed by the source): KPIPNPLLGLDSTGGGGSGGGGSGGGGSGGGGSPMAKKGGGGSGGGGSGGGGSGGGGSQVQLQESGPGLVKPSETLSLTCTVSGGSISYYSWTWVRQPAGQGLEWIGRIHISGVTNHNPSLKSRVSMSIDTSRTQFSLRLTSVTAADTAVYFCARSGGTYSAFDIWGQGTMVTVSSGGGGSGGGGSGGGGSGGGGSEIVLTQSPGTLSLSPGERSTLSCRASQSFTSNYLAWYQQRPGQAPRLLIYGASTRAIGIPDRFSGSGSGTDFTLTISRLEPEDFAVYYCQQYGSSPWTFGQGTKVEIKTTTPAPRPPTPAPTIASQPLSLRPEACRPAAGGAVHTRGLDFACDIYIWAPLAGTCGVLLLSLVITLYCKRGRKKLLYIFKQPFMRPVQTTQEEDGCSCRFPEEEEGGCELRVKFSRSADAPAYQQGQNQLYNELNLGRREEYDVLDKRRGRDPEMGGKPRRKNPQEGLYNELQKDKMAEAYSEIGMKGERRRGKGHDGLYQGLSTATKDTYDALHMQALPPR

B1: endogenous matriptase on OVCAR3, MDA-MB-231 and NCI-H292 cells (protein)
chain: MGSDRARKGGGGPKDFGAGLKYNSRHEKVNGLEEGVEFLPVNNVKKVEKHGPGRWVVLAAVLIGLLLVLLGIGFLVWHLQYRDVRVQKVFNGYMRITNENFVDAYENSNSTEFVSLASKVKDALKLLYSGVPFLGPYHKESAVTAFSEGSVIAYYWSEFSIPQHLVEEAERVMAEERVVMLPPRARSLKSFVVTSVVAFPTDSKTVQRTQDNSCSFGLHARGVELMRFTTPGFPDSPYPAHARCQWALRGDADSVLSLTFRSFDLASCDERGSDLVTVYNTLSPMEPHALVQLCGTYPPSYNLTFHSSQNVLLITLITNTERRHPGFEATFFQLPRMSSCGGRLRKAQGTFNSPYYPGHYPPNIDCTWNIEVPNNQHVKVRFKFFYLLEPGVPAGTCPKDYVEINGEKYCGERSQFVVTSNSNKITVRFHSDQSYTDTGFLAEYLSYDSSDPCPGQFTCRTGRCIRKELRCDGWADCTDHSDELNCSCDAGHQFTCKNKFCKPLFWVCDSVNDCGDNSDEQGCSCPAQTFRCSNGKCLSKSQQCNGKDDCGDGSDEASCPKVNVVTCTKHTYRCLNGLCLSKGNPECDGKEDCSDGSDEKDCDCGLRSFTRQARVVGGTDADEGEWPWQVSLHALGQGHICGASLISPNWLVSAAHCYIDDRGFRYSDPTQWTAFLGLHDQSQRSAPGVQERRLKRIISHPFFNDFTFDYDIALLELEKPAEYSSMVRPICLPDASHVFPAGKAIWVTGWGHTQYGGTGALILQKGEIRVINQTTCENLLPQQITPRMMCVGFLSGGVDSCQGDSGGPLSSVEADGRIFQAGVVSWGDGCAQRNKPGVYTRLPLFRDWIKENTGV
removal of V5 tag (linker cleavage, flow cytometry): the endogenous matriptase showed limited activity
